Twelve molecules from paper PMC4358367, “Structural basis of diverse membrane target recognitions by ankyrins” (eLife, 2014) can be followed below.

Numbering of substitutions follows the chain as printed. Names may count otherwise.

Usually Kd stands for a measure of binding affinity in units of concentration. The low end stands for a tighter complex, the high end for a looser complex.

In experiment [1] the target is T1, Nav1.2_ABD (ankyrin binding domain of Nav1.2, residues 1035–1129).
T1 chain: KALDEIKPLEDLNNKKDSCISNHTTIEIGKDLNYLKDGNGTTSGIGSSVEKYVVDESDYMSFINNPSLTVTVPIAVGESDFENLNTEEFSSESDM
The experiment is described as follows: ITC. The settings on record: chain shown with the change.

Experiment [2] deals with T2, AnkG_repeats (24 ANK repeats of rat 190 kDa ankyrin-G, residues 38–855), O70511.
T2 chain: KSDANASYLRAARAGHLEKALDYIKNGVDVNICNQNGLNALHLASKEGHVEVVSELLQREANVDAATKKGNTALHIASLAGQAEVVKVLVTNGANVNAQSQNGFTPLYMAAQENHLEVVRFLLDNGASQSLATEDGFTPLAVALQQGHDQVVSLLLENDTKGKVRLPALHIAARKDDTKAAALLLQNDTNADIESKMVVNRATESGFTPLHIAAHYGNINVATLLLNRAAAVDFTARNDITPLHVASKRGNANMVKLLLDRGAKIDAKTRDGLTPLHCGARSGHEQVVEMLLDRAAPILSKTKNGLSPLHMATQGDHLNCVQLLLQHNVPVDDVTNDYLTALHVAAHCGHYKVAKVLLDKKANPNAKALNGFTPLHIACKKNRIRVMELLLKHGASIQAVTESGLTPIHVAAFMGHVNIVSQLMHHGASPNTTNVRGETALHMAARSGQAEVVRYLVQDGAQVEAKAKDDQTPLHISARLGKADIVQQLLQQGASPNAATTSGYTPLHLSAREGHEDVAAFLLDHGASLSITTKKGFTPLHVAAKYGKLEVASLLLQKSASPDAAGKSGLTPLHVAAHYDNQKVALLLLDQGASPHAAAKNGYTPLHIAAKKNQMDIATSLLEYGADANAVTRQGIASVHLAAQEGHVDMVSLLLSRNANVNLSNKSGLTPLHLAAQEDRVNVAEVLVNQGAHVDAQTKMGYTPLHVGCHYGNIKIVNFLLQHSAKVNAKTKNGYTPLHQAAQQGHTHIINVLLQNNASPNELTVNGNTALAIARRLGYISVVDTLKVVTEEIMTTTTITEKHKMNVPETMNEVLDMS
The experiment is described as follows: ITC. The settings on record: chain shown with the change.

Experiment [3] concerns the target T3, AnkG_repeats (Rattus norvegicus, UniProt O70511).
T3 construct: thioredoxin-His6 (N); made in house; host or cells: Escherichia coli BL21 (DE3)
T3 sequence (O70511 38-855): T2 chain
The experiment is described as follows: ITC binding to AnkG_repeats WT. The settings on record: 25°C, 50 mM Tris, 100 mM NaCl, 1 mM EDTA, 1 mM DTT, pH 7.5, one-site binding model, AnkG_repeats WT. The text has this:
The coding sequences of AnkB_repeats (residues 28–873) were PCR amplified using the full-length human 220 kDa AnkB as the template. The coding sequences of the AnkR constructs, including AnkR_repeats (residues 42–853), and the full length AnkR C-terminal domain (residues 1529–1907), were PCR amplified from a mouse muscle cDNA library. The coding sequence of AnkG_repeats (residues 38–855) were PCR amplified using the full-length rat 190 kDa AnkG as the template. The fusion construct of AnkR_AS and AnkB_repeats was made by standard two-step PCR with a coding sequence of thrombin recognition residues ‘GSLVPRGS’ as the linker. This construct was used to crystallize and determine the complex structure. The same strategy was used in making other fusion constructs, including the Nav1.2_ABD-C/AnkB_repeats_R1–9 fusion construct containing residues 1103–1129 from mouse Nav1.2 and human AnkB residues 28–318 followed by a capping sequence corresponding to the αB of R24 (residues 814–822) and the AnkR_AS/AnkG_repeats fusion construct. For truncation mutations of ANK repeats constructs, the same capping sequence was added to the appropriate region of the C-terminus of each construct for protein stabilization. Mouse Nav1.2 (NP_001092768.1) and mouse neurofascin (CAD65849.1) were used here for studying their interaction with ankyrins. Peptides for mouse KCNQ2 (NP_034741.2, residues 826–845) and mouse Cav1.3 (NP_083257.2, residues 2134–2166) were commercially synthesized. For simplicity, we used human 220 kDa AnkB for the amino acid numbering throughout the manuscript. For the corresponding point mutations made on AnkG_repeats, each residue number should be increased by 10. All point mutations were created using the Quick Change site-directed mutagenesis kit and confirmed by DNA sequencing. […]
Isothermal titration calorimetry (ITC) measurements were carried out on a VP-ITC MicroCal calorimeter (MicroCal, Northampton, MA) at 25°C. […] The titration data were analyzed using the program Origin 7.0 and fitted by the one-site binding model.

For experiment [4], the target named is T4, FITC-labeled AnkR_AS peptide.
T4 chain: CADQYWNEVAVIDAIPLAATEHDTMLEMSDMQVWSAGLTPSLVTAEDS
Kind of experiment: fluorescence polarisation. The settings on record: chain shown with the change. In general terms: In fluorescence polarisation assays a small probe gives low polarisation when free and higher when bound to something large.

For experiment [5], the target named is FITC-labeled AnkR_AS peptide (mouse). Kind of experiment: fluorescence polarisation; FITC-labeled peptide (~1 µM) titrated with AnkB_repeats WT or mutants; 25°C; 50 mM Tris pH 8.0, 100 mM NaCl, 1 mM DTT, 1 mM EDTA; one-site binding model.
The target in experiment [6] is T5, AnkG_repeats (24 ANK repeats of rat 190 kDa ankyrin-G, residues 38–855) (rat, UniProt O70511 38-855).
T5 chain: T2 chain
Kind of experiment: ITC.

B1: AnkG_repeats (24 ANK repeats of rat 190 kDa ankyrin-G, residues 38–855), O70511 T94A; N98E (protein)
chain: T2 chain with T67A, N71E
Molecule B1 had a Kd in experiment [1] of 2600 nM.

B2: Nav1.2_ABD (ankyrin binding domain of Nav1.2, residues 1035–1129) E1112Q (protein)
chain: T1 chain with E78Q
For the molecule B2, in experiment [2], the Kd was 4600 nM.

B3: Nav1.2_ABD (ankyrin binding domain of Nav1.2, residues 1035–1129) E1112A (protein)
chain: T1 chain with E78A
In the case of B3, the equilibrium dissociation constant (Kd) in experiment [2] stood at 4300 nM.

B4: ABD-N (1035 - 1102): N-terminal 68-residue fragment of Nav1.2 loop 2 (residues 1035–1102) (protein, UniProt Q99250 1035-1102, looked up, fragment)
chain: ALDEIKPLEDLNNKKDSCISNHTTIEIGKDLNYLKDGNGTTSGIGSSVEKYVVDESDYMSFINNPSLT
As to B4, the Kd was 8100 ± 1100 nM in experiment [3] and roughly 8000 nM in experiment [3] (listed as ABD-N).

B5: AnkB_repeats (24 ANK repeats of human 220 kDa ankyrin-B, residues 28–873), Q01484 L366Q; F399Q; L432Q (protein)
chain: KSDSNASFLRAARAGNLDKVVEYLKGGIDINTCNQNGLNALHLAAKEGHVGLVQELLGRGSSVDSATKKGNTALHIASLAGQAEVVKVLVKEGANINAQSQNGFTPLYMAAQENHIDVVKYLLENGANQSTATEDGFTPLAVALQQGHNQAVAILLENDTKGKVRLPALHIAARKDDTKSAALLLQNDHNADVQSKMMVNRTTESGFTPLHIAAHYGNVNVATLLLNRGAAVDFTARNGITPLHVASKRGNTNMVKLLLDRGGQIDAKTRDGLTPLHCAARSGHDQVVELLLERGAPLLARTKNGLSPLHMAAQGDHVECVKHLLQHKAPVDDVTLDYQTALHVAAHCGHYRVTKLLLDKRANPNARALNGQTPLHIACKKNRIKVMELLVKYGASIQAITESGQTPIHVAAFMGHLNIVLLLLQNGASPDVTNIRGETALHMAARAGQVEVVRCLLRNGALVDARAREEQTPLHIASRLGKTEIVQLLLQHMAHPDAATTNGYTPLHISAREGQVDVASVLLEAGAAHSLATKKGFTPLHVAAKYGSLDVAKLLLQRRAAADSAGKNGLTPLHVAAHYDNQKVALLLLEKGASPHATAKNGYTPLHIAAKKNQMQIASTLLNYGAETNIVTKQGVTPLHLASQEGHTDMVTLLLDKGANIHMSTKSGLTSLHLAAQEDKVNVADILTKHGADQDAHTKLGYTPLIVACHYGNVKMVNFLLKQGANVNAKTKNGYTPLHQAAQQGHTHIINVLLQHGAKPNATTANGNTALAIAKRLGYISVVDTLKVVTEEVTTTTTTITEKHKLNVPETMTEVLDVSDEEGDDTMTGDGGEYLRPEDLKELGDD
Molecule B5 yielded a Kd in experiment [4] of 410 nM.

B6: AnkB_repeats site 2 mutant 'IL' (Ile267 and Leu300 to Gln) (domain or fragment)
chain: B5 chain with I240Q, L273Q, Q339L, Q372F, Q405L
B6: the fold decrease in AnkR AS binding against WT ANK repeats in experiment [5] stood at 20 fold.

B7: AnkB_repeats (24 ANK repeats of human 220 kDa ankyrin-B, residues 28–873), Q01484 F131Q; F164Q (protein)
chain: B5 chain with F104Q, F137Q, Q339L, Q372F, Q405L
Regarding B7, in experiment [4], the dissociation constant (Kd) stood at 2700 nM.

B8: AnkB_repeats (24 ANK repeats of human 220 kDa ankyrin-B, residues 28–873), Q01484 I267Q; L300Q (protein)
chain: B5 chain with I240Q, L273Q, Q339L, Q372F, Q405L
In turn, B8 displayed a Kd in experiment [4] of 3100 nM.

B9: AnkB_repeats (24 ANK repeats of human 220 kDa ankyrin-B, residues 28–873) (domain or fragment)
chain: B5 chain with Q339L, Q372F, Q405L
In the case of B9, the Kd in experiment [5] stood at 140 nM.

B10: AnkB_repeats site 3 mutant 'LFL' (Leu366, Phe399 and Leu432 to Gln) (domain or fragment)
chain: B5 chain
Take B10: the fold decrease in AnkR AS binding against WT ANK repeats in experiment [5] worked out at 3 fold.

B11: AnkB_repeats site 1 mutant 'FF' (Phe131 and Phe164 to Gln) (domain or fragment)
chain: B5 chain with F104Q, F137Q, Q339L, Q372F, Q405L
Consider B11, for which, in experiment [5], the fold decrease in AnkR AS binding against WT ANK repeats was 20 fold.

B12: Nav1.2 ABD without the C-terminal less-conserved 10 residues of ABD-C (domain or fragment)
chain: KALDEIKPLEDLNNKKDSCISNHTTIEIGKDLNYLKDGNGTTSGIGSSVEKYVVDESDYMSFINNPSLTVTVPIAVGESDFENLN
On to B12, for which, in experiment [6], the Kd amounted to 170 nM.
